# Laboratory results: patent US20230104540A1 (NEURACLE SCIENCE, published 2023)
# T1: CD58-Fc (UniProt P19256 29-215, limits assumed)
# T1 construct: Control antigen
# T1 sequence (looked up): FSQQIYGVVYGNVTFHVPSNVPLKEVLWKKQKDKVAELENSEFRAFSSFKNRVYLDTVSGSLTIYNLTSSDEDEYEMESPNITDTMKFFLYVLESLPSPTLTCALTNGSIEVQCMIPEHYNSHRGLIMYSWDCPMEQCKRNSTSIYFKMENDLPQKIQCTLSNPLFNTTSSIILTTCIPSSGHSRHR
# T2: AITR-Fc (UniProt Q9Y5U5 26-161, limits assumed)
# T2 construct: also called AIRTR
# T2 sequence (looked up): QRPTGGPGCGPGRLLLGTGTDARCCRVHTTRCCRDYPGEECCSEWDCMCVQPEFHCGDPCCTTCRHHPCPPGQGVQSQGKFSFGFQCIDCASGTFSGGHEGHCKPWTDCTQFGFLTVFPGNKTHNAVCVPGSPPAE
# B1: anti-FAM19A1-3A8 (antibody, V domains shown)
# VH: QVQLQQSGPGLVKPSETLSLICSVSGDAITSGSYYWGWIRQSPGRGLEWIGEISHSGSTDYNPSLKSRVTISVDKSRNQFSLRLNSVTAVDTAVYYCAGDTALVGAYSIWGQGTMVTVSS
# VL: SYELTQAPSLSVSPGQTANIICSGDNLRTKYVSWYQQKPGQSPLLVIYQDTRRPSGIPARFSGSNSGNTATLTISGTQTRDESTYYCMTWDVDTTSMIFGGGTKLTVL
# notes: also called anti-FAM19A1 IgG1 antibody clone 3A8
# B2: Anti-FAM19A1 3A8 mono scFv-phage clone (scFv, V domains shown)
# VH: B1 VH
# VL: B1 VL
# B3: anti-FAM19A1 IgG1 antibody clone 1C1 (antibody, V domains shown)
# VH: QVQLVESGGGVAQPGRSLRLSCAASGFAFSDYGIHWVRQAPGKGLEWVALISYDGSKRSYADSVKGRFAISRDNSKNTLYLQMNSLRAEDTAVYYCARPGDYALAFDLWGQGTMVTVSS
# VL: QTVVTQEPSFSVSPGETVTLTCGLSSGSVSTSHFPSWYRQTPGQAPRPLIDSRNARSIGVPDRFSGSIVGTKATLTISGAQAEDECNYYCALYMGRGNWVFGGGTKLTVL
# notes: also called A1-1C1; FAM19A1-1C1
# B4: Anti-FAM19A1 1C1 mono scFv-phage clone (scFv, V domains shown)
# VH: B3 VH
# VL: B3 VL
# B5: anti-FAM19A1-1A11 (antibody, V domains shown)
# VH: QVQLVESGAEVRKPGASVKVSCKASGYSFTGYDINWVRQAPGQGLEWMGWMNPSSGNTGYAQKFQGRVTMTRDSSISTAYMELSSLRSEDTAVYYCARALNSVYYYHALDVWGQGTTITVSS
# VL: SYELTQPPSASVSPGQTASITCSGDRLHNKYTSWYQQKPGQSPLLVIYQDAKRPSGIPERFSGSSSRGTATLTISGTQATDEADYYCQTWDRSTGVFGTGTKVTVL
# notes: also called anti-FAM19A1 IgG1 antibody clone 1A11; A1-1A11-Ybio
# B6: Anti-FAM19A1 1A11 mono scFv-phage clone (scFv, V domains shown)
# VH: B5 VH
# VL: B5 VL
# B7: anti-FAM19A1-2G7 (antibody, V domains shown)
# VH: QVQLVESGGGLVKPGRSLSLSCTTSGFPFGDHAINWVRQAPGKGLEWVGFIRSNTYGGTTQYAASVEGRFTISRDDSKSIAYLQMNSLRAEDTAVYYCTKDITGGGFWSDYGDYFDAFDFWGQGTMVTVSS
# VL: SYELTQPLSVSVSPGQTASISCSGDKLGYKYASWYQQKPGQSPVVVIYQDKKRPSGIPERFSGSNSGNTATLTISGTQPMDEADYYCQAWDSGTASHVFGTGTKVTVL
# notes: also called anti-FAM19A1 IgG1 antibody clone 2G7
# B8: Anti-FAM19A1 2G7 mono scFv-phage clone (scFv, V domains shown)
# VH: B7 VH
# VL: B7 VL
# Columns and labels:
# [1] = target: T3, FAM19A1 protein (ELISA of Example 3) (Homo sapiens (Human), UniProt Q7Z5A9 20-133); assay: ELISA, IgG titrated from 0 to 100 nM on FAM19A1 protein (Example 3); Kd row of the table under the graph, R square 0.9168, the concentration axis reads Cons (nM); the curve is faint and not told apart from that of 1A11
# [2] = target: T1, CD58-Fc; assay: mono scFv-phage ELISA on coated antigen, single point (Example 2)
# [3] = target: T4, hRAGE-Fc (human (by the label hRAGE), UniProt Q15109 23-344, limits assumed); assay: as above
# T4 construct: Control antigen
# T4 sequence (Q15109 23-344 limits assumed): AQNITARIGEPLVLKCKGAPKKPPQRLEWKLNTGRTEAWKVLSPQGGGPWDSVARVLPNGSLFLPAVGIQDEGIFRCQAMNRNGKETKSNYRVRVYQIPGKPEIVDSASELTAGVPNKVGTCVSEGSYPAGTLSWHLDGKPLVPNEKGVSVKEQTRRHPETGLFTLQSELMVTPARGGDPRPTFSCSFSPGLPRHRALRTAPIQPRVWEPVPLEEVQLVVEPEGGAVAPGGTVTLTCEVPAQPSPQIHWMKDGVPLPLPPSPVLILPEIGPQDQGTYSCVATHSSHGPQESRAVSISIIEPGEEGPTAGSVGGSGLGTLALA
# [4] = target: T2, AITR-Fc; assay: as above
# [5] = target: FAM19A1 mutant M6 (Mus musculus (Mouse), UniProt Q7TPG8 20-133); assay: ELISA on plate-coated mutant, anti-hKappa-HRP detection
# [6] = target: T3, FAM19A1 protein (ELISA of Example 3); assay: ELISA, IgG titrated from 0 to 100 nM on FAM19A1 protein (Example 3); Kd row of the table under the graph, R square 0.9527, the concentration axis reads Cons (nM); fitted curve levels off at A450 about 2.8, last point at 100 nM about 3.1
# [7] = target: Fam19A1-M3; assay: ELISA on coated FAM19A1 protein (500 ng), one antibody amount, anti-hKappa-HRP (Example 4)
# [8] = target: Fam19A1-M7; assay: as above
# [9] = target: Fam19A1-M5; assay: as above
# [10] = target: Fam19A1-M1; assay: as above
# [11] = target: Wild-type FAM19A1 (Table 10) (Mus musculus (Mouse), UniProt Q7TPG8 20-133); assay: as above
# [12] = target: Fam19A1-M4; assay: as above
# [13] = target: Fam19A1-M2; assay: as above
# [14] = target: T3, FAM19A1 protein (ELISA of Example 3); assay: ELISA, IgG titrated from 0 to 100 nM on FAM19A1 protein (Example 3); Kd row of the table under the graph, R square 0.9106, the concentration axis reads Cons (nM); fitted curve levels off low, at A450 about 0.75
binder,measurement,setting,value
B1,Kd,[1],56 nM
B2,binding result,[2],no binding
same,binding result,[3],no binding
same,binding result,[4],no binding
B3,binding result,[5],no binding
same,Kd,[6],1.13 nM
same,binding result,[7],binds
same,binding result,[8],binds
same,binding result,[9],binds
same,binding result,[10],binds
same,binding result,[11],binds
same,binding result,[12],binds
same,binding result,[13],binds
B4,binding result,[2],no binding
same,binding result,[3],no binding
same,binding result,[4],no binding
B5,binding result,[10],binds
same,binding result,[13],binds
B6,binding result,[2],no binding
same,binding result,[3],no binding
same,binding result,[4],no binding
B7,Kd,[14],1.89 nM
B8,binding result,[2],no binding
same,binding result,[3],no binding
same,binding result,[4],no binding
